Laboratory results as given in US20200277373A1, “ANTI-TREM2 ANTIBODIES AND METHODS OF USE THEREOF” (Denali Therapeutics Inc., priority 2017, published 2020).

T1: TREM2 (Homo sapiens, UniProt Q9NZC2)
T1 construct: macrophage cells that endogenously express TREM2; endogenous in cells; host or cells: primary human monocyte-derived macrophages from donor blood
T1 sequence (Q9NZC2 19-230): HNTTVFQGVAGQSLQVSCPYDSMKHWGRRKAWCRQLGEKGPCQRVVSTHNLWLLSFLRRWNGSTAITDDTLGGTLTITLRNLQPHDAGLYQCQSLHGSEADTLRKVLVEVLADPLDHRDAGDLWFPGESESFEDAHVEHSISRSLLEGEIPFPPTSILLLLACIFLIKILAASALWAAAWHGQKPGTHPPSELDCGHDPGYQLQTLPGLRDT


Key:
TREM2 [1] = target: T1, TREM2; assay: TREM2 pSyk antagonist assay on human macrophages (antibody pre-incubation, then liposomes); assay type: cell-based; conditions: FIGS. 9C-9D, 30 nM antibody
Protocol: Human macrophages were differentiated from donor blood using a human monocyte enrichment cocktail (Stem Cell Technologies) and culturing monocytes with human mCSF for five days in macrophage media (RPMI+10% Hyclone FBS+Glutamax+Pen/Strep+non-essential amino acids+sodium pyruvate). On the fifth day, the human macrophages were scraped from the flasks and were re-plated at 100,000 cells/well on a 96-well poly-D-lysine-coated plate in the macrophage media (without mCSF). The cells were incubated for 24 hours to adhere, then the media was removed.
Antibodies diluted in RPMI alone were immediately added to the cells, and allowed to incubate for 30 minutes at 37° C. The antibodies were then removed. Lipid vesicles comprised of 70% DOPC and 30% POPS (made according to the procedure for making vesicles described above) in HBSS were added to the cells and incubated […] at 37° C. The liposome/antibody solution was removed, and 35 μL lysis buffer (Cell Signaling Technologies, CST) was added using the liquid handler. The lysate was then incubated at 4° C. for 30 minutes, then either frozen at −80° C. or immediately carried forward to a pSyk AlphaLISA assay as described above.

TREM2 [2] = target: T2, TREM2 (Homo sapiens, UniProt Q9NZC2); assay: pSyk antagonist assay on HEK293 TREM2/DAP12 cells; assay type: cell-based; conditions: FIGS. 9E-9G
T2 construct: expressed in transfected cells
Protocol: These experiments were performed as follows. Two days in advance of the experiment, HEK293 cells stably overexpressing TREM2 and DAP12 were plated at 40,000 cells/well on a 96 well poly-D-lysine-coated plate. Antibodies diluted in DMEM alone were immediately added to the cells, and allowed to incubate for 30 minutes at 37° C. The antibodies were then removed. […] The liposome/antibody solution was removed, and 35 μL lysis buffer (Cell Signaling Technologies, CST) was added using the liquid handler. The lysate was then incubated at 4° C. for 30 minutes, then either frozen at −80° C. or immediately carried forward to a pSyk AlphaLISA assay as described above. The percent inhibition was calculated as in FIG. 9C.
FIGS. 9F and 9G show inhibition by 21D4 and 21D11, respectively, at increasing antibody concentrations. These experiments were performed similarly to those described in FIG. 9E.
T2 sequence (O43914 22-113 partner, one chain of several): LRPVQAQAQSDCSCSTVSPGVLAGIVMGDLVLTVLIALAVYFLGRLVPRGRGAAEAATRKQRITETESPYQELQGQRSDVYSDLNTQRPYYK

[3] = target: T3, Human TREM2 expressing HEK cells (Homo sapiens, UniProt Q9NZC2); assay: FACS surface binding on HEK 293 overexpressing human TREM2 (H6); conditions: FIG. 1A, mixed cell lines
T3 construct: expressed in transfected cells
Protocol: HEK 293 overexpressing human TREM2 (H6) and HEK 293 overexpressing GFP (B5) were harvested by 0.05% trypsin and incubated at 37° C. for 2 hours for surface TREM2 recovery. 293F overexpression mouse TREM2 were harvested and labelled with NucBlue live cell stain ReadyProbes reagent for 10 minutes (2 drops of reagent added per mL of media). After labeling, cells were washed twice with 1×PBS. NucBlue labeled 293F cells were mixed with H6 and B5 in FACS buffer (PBS-+-0.5% BSA) with human Trustain FcX solution (Biolegend, cat #422302) at a density of 10^6/mL per cell line. Mixed cell lines were seeded at 300,000 cells per well in a 96-well round-bottom and incubated 20 minutes at room temperature. After incubation, cells were centrifuged and test anti-TREM2 antibodies were added, then incubated for 45 minutes on ice. After incubation, cells were centrifuged and washed with FACS buffer three times. Cells were then incubated with secondary antibody (Alexa Fluor 647 AffiniPure F(ab′)2 fragment goat anti-mouse IgG, Fcγ fragment specific (1:200, Jackson ImmunoResearch, cat #115-606-071) for 30 minutes on ice. After incubation, cells were washed with FACS buffer three times and resuspended in 90 μL of FACS buffer, then analyzed by flow cytometry (BD FACSCanto II, San Jose, Calif.). 20,000 events were obtained for each sample.

human macrophages = assay: Cell survival assay, human monocyte-derived macrophages, restricted or no M-CSF, CellTiter Glo; assay type: cell-based; conditions: plate coated antibody, 5 ng/mL or no M-CSF, day 6
Protocol: TREM2 can support microglia energy homeostasis (Ulland et al., Cell, 2017, 170:649-663). […] To understand if enhancing TREM2 activity with TREM2 agonistic antibodies is sufficient for macrophage/microglia survival under limited M-CSF conditions, human macrophage differentiation and survival studies were performed using antibodies as described herein. Human monocytes isolated from peripheral blood were incubated with 5 ng/mL M-CSF in the presence of titrated concentrations of plate coated TREM2 antibodies or isotype controls. On day 6 cell viability was determined by CellTiter Glo viability assay.

T3 sequence (O43914 22-113 partner, one chain of several): as above

liposome mediated pSyk signaling after antibody pre-incubation (TREM2 [1]) | inhibition of liposome mediated pSyk (TREM2 [2]) | Molecule | binding to human and mouse TREM2 HEK cells (in words) [3] | survival of human macrophages (human macrophages)
blocked | weaker antagonistic activity | 21D11: anti-TREM2 antibody clone; VH SEQ ID NO:14, VL SEQ ID NO:25 (antibody, V domains shown) VH: QVQLQQSGAELARPGASVKLSCKASGYTFTSYWIQWVKQRPGQGLEWIGTIYPGDGDARYTQKFKGKATLTADKSSSTTYMQLNSLASEDSAVYYCARNGITTAGYYAMDYWGQGTSVTVSS VL: DIQMTQSPASLSVSVGETVTITCRASENIYSNLAWYQQKQGRSPQLLVYAATNLADGVPSRFSGSGSGTQYSLKINSLQSEDFGYYYCQHFWGTPYTFGGGTKVEIK |  | 
 |  | RS9.F6: anti-TREM2 antibody clone; VH SEQ ID NO:24, VL SEQ ID NO:35 (antibody, V domains shown) VH: QVQLQQPGAELVKPGASVKLSCKASGYTFTSYWMHWVKQSPGRGLEWIGRSDPTTGGTNYNEKFKTKATLTVDKPSSTAYMQLSSLTSDDSAVYYCVRTSGTGDYWGQGTSLTVSS VL: DVVMTQTPLSLPVSLGDQASISCRSSQSLVHNNGNTFLHWYLQKPGQSPKLLIYKVSNRFSGVPDRFSGSGSGTDFTLKISRVEAEDLGVYFCSQTTHVPPTFGGGTKLEIK | binding to both mouse and human TREM2 cells | increased the survival
